Assay results taken from patent US20240101665A1.

Experiments:
[1] = target: human G Protein coupled receptor 48 (GPR48), endogenous, in colorectal cancer cells, tissues and organoids (human) (UniProt Q9BXB1); assay: western blot on P6C lysate, dilution series of antibody
[2] = target: human G Protein coupled receptor 48 (GPR48), endogenous, in colorectal cancer cells, tissues and organoids (human) (UniProt Q9BXB1); assay: flow cytometry on P6C cells, dilution series of antibody, FITC goat anti-mouse IgG
[3] = target: human G Protein coupled receptor 48 (GPR48), endogenous, in colorectal cancer cells, tissues and organoids (human) (UniProt Q9BXB1); assay: cell-based or functional assay

- titer (reciprocal dilution (1:x) of 1 mg/ml) [1]: 300
- dilution factor (dilution factor) [2]: 100
- inhibition rate, colony formation of HCT116 cells, 10 µg/ml antibody [3]: 15.4%
- inhibition rate, colony formation of P6C cells, 10 µg/ml antibody [3]: 9.7%
- inhibition rate, colony formation of SW480 cells, 10 µg/ml antibody [3]: 26.1%
Substance: Commercial GPR48 monoclonal antibody, R&D Systems, clone #852229, product number MAB7750
